{
  "source": "paper PMC12328707",
  "about": "“Potassium binding by carbonyl clusters, halophilic adaptation and catalysis of Haloferax mediterranei D-2-hydroxyacid dehydrogenase” (Communications Biology, 2025)",
  "assay_in_all_cases": "purified protein",
  "type_in_all_cases": "biochemical, Haloferax mediterranei",
  "key": {"purified protein [1]": {"substrate": "NC(=O)C1=CN([C@@H]2O[C@H](COP(=O)(O)OP(=O)(O)OC[C@H]3O[C@@H](n4cnc5c(N)ncnc54)[C@H](OP(=O)(O)O)[C@@H]3O)[C@@H](O)[C@H]2O)C=CC1", "conditions": "4 mM 2-ketohexanoic acid, 4 M KCl, 50 mM HEPES pH 8.0, 22 °C, varied: cofactor"}, "purified protein [2]": {"substrate": "CCCCC(=O)C(=O)O", "conditions": "0.25 mM NADPH, 4 M KCl, 50 mM HEPES pH 8.0, 22 °C"}, "purified protein [3]": {"substrate": "NC(=O)C1=CN([C@@H]2O[C@H](COP(=O)(O)OP(=O)(O)OC[C@H]3O[C@@H](n4cnc5c(N)ncnc54)[C@H](O)[C@@H]3O)[C@@H](O)[C@H]2O)C=CC1", "conditions": "20 mM 2-ketohexanoic acid, 4 M KCl, 50 mM HEPES pH 8.0, 22 °C, varied: cofactor"}},
  "data": [
    {"protein": "D2HDH (Haloferax mediterranei ATCC 33500) (protein, homodimer (~66 kDa; 79 kDa by gel filtration); residues 1-308; no tag mentioned) MHIERLAVDESVGRAMPPQRFIEALSDLGVPVEFAGEDEQFGPGDAVASFGHRDAFLDADWVHCIRAGYDEFPVGVYEEAGTYLTNSTGIHGTTVGETVAGYMLTFARRLHAYRDAQHDHAWDLPRYEEPFTLAGERVCVVGLGTLGRGVVDRAAALGMEVVGVRRSGDPVDNVSTVYTPDRLHEAIADARFVVLATPLTDETEGMVAAPEFETMREDASLVNVARGPVVVESDLVAALDSGDIAGAALDVFSEEPLPEDSPLWDFEDVLITPHVSAATSKYHEDVAALIRENIEKIATGDELTNRVV", "values": [
      {"measurement": "Km", "setting": "purified protein [1]", "result": "14 ± 4", "unit": "µM"},
      {"measurement": "Vmax", "setting": "purified protein [1]", "result": 2.5, "unit": "µmol/min/mg"},
      {"measurement": "kcat", "setting": "purified protein [1]", "result": "1.38 ± 0.0667", "unit": "s⁻¹"},
      {"measurement": "kcat/Km", "setting": "purified protein [1]", "result": 98800, "unit": "M⁻¹ s⁻¹"},
      {"measurement": "Km", "setting": "purified protein [2]", "result": "460 ± 30", "unit": "µM"},
      {"measurement": "Vmax", "setting": "purified protein [2]", "result": 2.5, "unit": "µmol/min/mg"},
      {"measurement": "kcat", "setting": "purified protein [2]", "result": "1.38 ± 0.0333", "unit": "s⁻¹"},
      {"measurement": "kcat/Km", "setting": "purified protein [2]", "result": 3000, "unit": "M⁻¹ s⁻¹"},
      {"measurement": "Km", "setting": "purified protein [3]", "result": "97 ± 18", "unit": "µM"},
      {"measurement": "Vmax", "setting": "purified protein [3]", "result": 4.4, "unit": "µmol/min/mg"},
      {"measurement": "kcat", "setting": "purified protein [3]", "result": "2.48 ± 0.167", "unit": "s⁻¹"},
      {"measurement": "kcat/Km", "setting": "purified protein [3]", "result": 25600, "unit": "M⁻¹ s⁻¹"}
    ]}
  ]
}
